Laboratory results from patent publication US20240116999A1, “CONFORMATIONALLY CONSTRAINED GLUCAGON ANALOGUES AND THEIR USE IN GLUCAGON-SINGLE CHAIN INSULIN FUSION PROTEINS” (THE TRUSTEES OF INDIANA UNIVERSITY, priority 2021, published 2024).
Bridge positions count the residues as written; N and C are the ends. Square brackets hold non-standard residues; d marks the D form. Orn = NCCC[C@H](N)C(=O)O

B1: HSQGTFTSDYSOKLDSEOAQDFVQWLMNTEEKFVNQHLCGSHLVEALYLVCGEOGFFYTPETEEGPOOGILEQCCQSICSLEQLENYCN (protein)
chain: HSQGTFTSDYS[Orn]KLDSE[Orn]AQDFVQWLMNTEEKFVNQHLCGSHLVEALYLVCGE[Orn]GFFYTPETEEGP[Orn][Orn]GILEQCCQSICSLEQLENYCN
modifications: lactam 13-17; ends not checked
notes: fusion protein made by trypsin-mediated ligation
B2: HSQGTFTSDYSOKLDSEOAQDFVQWLMNTEEKFVNQHLCGSHLVEALYLVCGEOGFFYTPETEEGPOOGIVEQCCQSICSLEQLENYCN (protein)
chain: HSQGTFTSDYSXKLDSEXAQDFVQWLMNTEEKFVNQHLCGSHLVEALYLVCGEXGFFYTPETEEGPXXGIVEQCCQSICSLEQLENYCN
modifications: K13-E17 lactam; ornithine residues; glucagon/insulin fusion peptide analog; (12)..(12) Xaa at position 12 is ornithine; (18)..(18) Xaa at position 18 is ornithine; (54)..(54) Xaa at position 54 is ornithine; (67)..(67) Xaa at position 67 is ornithine; (68)..(68) Xaa at position 68 is ornithine
notes: as for B1

Key:
STZ (diabetic) rats = assay: In vivo assay in STZ (diabetic) rats, subcutaneous injection; design: species or system rat; settings: for effect on blood glucose levels: FIG. 17, STZ rats, 12 nmol/kg per rat
Excerpt: FIG. 17 presents an in vivo assay done in STZ rats.
FIG. 18 presents another in vivo assay done in STZ rats. The four fusion proteins used in FIG. 17 were subcutaneously injected at doses of 23.8 nmol/kg per rat. […] In this study both fusion proteins carrying an active SCI analogue had similar activities.

[1] = Thioflavin T (ThT) fibrillation assay; format: physicochemical; settings: FIG. 15; month-long assay, 100 μM, pH 7.4, 37° C.
Experimental: Fibrillation Assays. We employed an automated plate-based fluorescent device to monitor the time course of peptide fibrillation using a Thioflavin T (ThT) assay. This assay is based on the THT fluorescence emission at 480 nm upon binding to mature fibrils when excited at 440 nm. The assay was performed by preparing stock solutions of the fusion protein and the individual peptides in either NaCl 0.9% (pH 2.5) or PBS (pH 7.4). Our experience has identified 100-μM final concentration as optimal fibrillation conditions for glucagon analogues. Stock solutions were diluted with NaCl 0.9% or 1X PBS buffer, pH adjusted (with 1N HCl or 1N NaOH) mixed with Thioflavin-T (THT) at a final concentration of 16 μM, centrifuged, and 250 μl of the sample were placed on a 96-well plate with 4-10 technical replicates. Measurements were done every 15 minutes and the sample agitated at 1096 cpm at 37° C. on a Synergy H1 microplate reader (BioTek, Winooski, VT). The lag time, defined as the time-point at which fibrillation starts its exponential phase, was considered as the point at which fluorescence was 3 times the background signal.

Molecule | effect on blood glucose levels (STZ (diabetic) rats) | effect on blood-glucose concentrations (STZ (diabetic) rats; FIG. 18, STZ rats, 23.8 nmol/kg per rat) | formation of amyloid-like fibrils [1] | activity at 23.8 nmol/kg relative to the 12-nmol/kg rat doses (STZ (diabetic) rats; FIG. 18 vs FIG. 17, STZ rats)
B1 | slight rise in blood glucose levels | didn't cause an increase in blood-glucose concentrations |  | 
B2 | higher activity than the corresponding analogue containing an active SCI and inactive glucagon |  | did not form amyloid-like fibrils within the duration of the experiment | stayed in a similar range
